Laboratory results taken from the supplement of paper PMC9170038.

Tested on: MS2 coat protein
Assay: apparent KD of MS2 coat protein; designed switch direction (-1 OFF switch, 1 ON switch): 1; higher = weaker reporter binding
In short: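 Designed RNA switches sharing common flanks were transcribed on Illumina chips by stalled E. coli RNA polymerase. They were titrated with SNAP-549-labelled MS2 coat protein, from 0.7 or 1.5 nM doubling to 3 µM, in Tris-HCl pH 7.5 buffer with KCl, MgCl2, BSA, DTT, tRNA and Tween-20. Titrations ran without input, with 200 uM small-molecule ligand, or with an oligonucleotide input. The apparent KD of each design is the median over its clusters, after curve-fitting of normalised cluster fluorescence.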

[1] = input ligand: microRNA oligo, concentration not stated
[2] = Eterna round: R95, input ligand: FMN 200 uM
[3] = Eterna round: R95, input ligand: microRNA oligo, concentration not stated
[4] = Eterna round: R95, input ligand: none

| Sequence | apparent KD of MS2 coat protein (input ligand: FMN 200 uM) [nM] | apparent KD of MS2 coat protein [1] [nM] | apparent KD of MS2 coat protein (input ligand: none) [nM] | apparent KD of MS2 coat protein [2] [nM] | apparent KD of MS2 coat protein [3] [nM] | apparent KD of MS2 coat protein [4] [nM] |
| --- | --- | --- | --- | --- | --- | --- |
| AAAGACAUGAGGAUCACCCAUGUACAGACAAACCAGUCUGCACAGGAUAUCCCGAGGAUAACUCGGGAGAAGGGUGGCCAAAAC [Onveenes] (Eterna round: R96, puzzle: Same State NG 3) | 74.8 | 18.9 | 33.5 | – | – | – |
| ACCCAAAGUAUAUGGGAACAAGCUUUUUAACAUGAGGAUCACCCAUGUACUCGUCUUAUAAGCAGUCGAAAGACUGC [hsa-mir-208a sensor: 100] (Eterna round: R96, puzzle: Sensor for hsa-mir-208a) | 557 | 14.3 | 877 | – | – | – |
| GUAGCAUACCGAGGAUAUUCAUAUAAUAAUAACAUGAGGAUCACCCAUGUAAGGCGAAAGCCUUGGGAGAAGGCGGAAUGCUAC [Xeonanis - 20 Mod60] (Eterna round: R96, puzzle: Same State NG 2) | 11.6 | 30 | 63.6 | – | – | – |
| AGUCCAGCGAAAGCUGGACAAAGGCAUGUACAUGAGGAUCACCCAUGUUCAUGUACAAGCUUUUUGCUCGUCUUAAA [JL mod - D95 - 3] (puzzle: Sensor for hsa-mir-208a) | – | – | – | 147 | 14 | 194 |
| GUAGCAUACCGAGGAUAUUCAUAUUAACAUGAGGAUCACCCAUGUUGGCCACAUUAGUGGCCUUGGGAGAAGGCGGAAUGCUAC [Xeonanis - 20 Mod38] (Eterna round: R96, puzzle: Same State NG 2) | 19.6 | 107 | 140 | – | – | – |
| GGUAUUGACACAGGAUAUGCUUACGAAACGUAAGCAGAAGGGUGAACAUGAGGAUCACCCAUGUAUGUACCAGGGCGUGAGCCC [JL SSNG1 1.74] (Eterna round: R96, puzzle: Same State NG 1) | 169 | 875 | 1880 | – | – | – |
| CGCCGACAUGAGGAUCACCCAUGUGAGCGACUCACAGGAUAUACGCGAUAACAACUUCGCGUAGAAGGGUGCUCCU [Esvezaza] (puzzle: Same State 1) | – | – | – | 14.4 | 12.2 | 14.4 |
| UGUUGUAUUACAGGAUAUCUAUUAUUUUUACUUAGAGAAGGGUAUUCACAUGAGGAUCACCCAUGUAUAUACGAGGAAGUUGUG [JMF's solution 27] (Eterna round: R96, puzzle: Same State NG 1) | – | 38.2 | – | – | – | – |
| GUUACAUGAGGAUCACCCAUGUAUGUGUGGGAGUAAGUGUCUUAGGAUAUCUAGUAUUUAAUCUAAGAGAAGGAAGAUUGUUGU [JMF's solution 65] (Eterna round: R96, puzzle: Same State NG 3) | 105 | 74.1 | 128 | – | – | – |
| AACCCACAUGAGGAUCACCCAUGUGUCUGAGGCACAGGAUAUCGACAGGCAAGACACCUGCGAGAAGGGUGACCUC [Same State 1 - Mod of Vinnie Diatater v.1] (puzzle: Same State 1) | – | – | – | 18.4 | 8.17 | 27.9 |
| CAGAGCCCAUGGGCCUGACAUGAGGAUCACCCAUGUGGCUUUGAGGAUAUAAGCGGAAACACCACUUAGAAGGCGAAGCCUAAC [Bequedbi] (Eterna round: R96, puzzle: Same State NG 3) | 489 | 37.1 | 11.3 | – | – | – |
| AGGACGAGCACAGGAUAUCCGUGGAACAGACACGGAGAAGGGUGAAGUCAUGGAAAGAAAAGACAUGAGGAUCACCCAUGUAAA [Eszaonin] (Eterna round: R96, puzzle: Same State NG 1) | 132 | 61.3 | 310 | – | – | – |
| AGAAAACAUGAGGAUCACCCAUGUAGAAAUAUGGGAGGAUAUACAAAGACGAAAGUCGAGGUAGAAGGCCUAAAGA [Mat - Same State 1 - Meechl mod - D122] (Eterna round: R96, puzzle: Same State 1) | – | 77.9 | – | – | – | – |
